Here are results for four substances from patent US20020039999A1.

The target in the assay is opioid receptors of rat brain homogenate ([3H]-Naloxone binding sites). Kind of assay: [3H]-Naloxone (1.0 nM) displacement, rat brain homogenate, filtration.

Dynorphin A 1-13-NH2 (peptide): the % inhibition at 0.1 nM amounted to 2.76%, the % inhibition at 10 nM is 9.89% and the % inhibition at 1000 nM came out at 91.8%.
Take Dynorphin A 2-13-NH2 (peptide): the % inhibition at 0.1 nM was found to be 1.66%, the % inhibition at 10 nM is -0.19% and the % inhibition at 1000 nM was found to be 44.1%.
On to Dynorphin A 2-17-NH2 (peptide), for which the % inhibition at 0.1 nM is -3.21%, the % inhibition at 10 nM came out at 4.87% and the % inhibition at 1000 nM came to 12.7%.
In the case of “Human serum albumin (HSA) (from UniProt P02768 25-609)”, the % inhibition at 0.1 nM is -0.6%.

Usually % inhibition stands for the drop in the measured response relative to a control, in per cent.
